Assay results as given in the DeepSol protein solubility set.

Assay: soluble on expression in E. coli; label from the status in PepcDB or PDB records

Sequence	soluble on expression in E. coli
MSLLTEQQRRELDWEKTDGLMPVIVQHAVSGEVLMLGYMNPEALDKTLESGKVTFFSRTKQRLWTKGETPGNFLNVVSIAPDCDNDTLLVLANPIGPTCHKGTSSCFGDTAHQWLFLYQLEQLLAERKSADPETSYTAKLYASGTKRIAQKVGEEGVETALAATVHDRFELTNEASDLMYHLLVLLQDQGLDLTPVIENLRKRHQEGHHHHHH	soluble
MAMSRQCTHYGRWPQHGFTSLKKLTPQSVTSRIQPGTDVIVCAEMDEHWGYFCAKKRQRWLVDTYDKIRRTDVDHVFGERTLATLERLLSLLSAFEVAVWMTDGWPLYESRLKGKLHVISKRYTQRIERHNLNLRQHLARLVRKSLSFSKSVELHSGIILEHHHHHH	not soluble
MSSGNILWGSQNPIVFKNSFGVSNADTGSQDDLSQQNPFAEGYGVLLILLMVIQAIANNKFIEVQKNAERARNTQEKSNEMDEVIAKAAKGDAKTKEEVPEDVIKYMRDNGILIDGMTIDDYMAKYGDHGKLDKGGLQAIKAALDNDANRNTDLMSQGQITIQKMSQELNAVLTQLTGLISKWGEISSMIAQKTYS	not soluble
MGACWSDNPKKVLEMLSPMNIIAITRSIPENTPNSWFIYWLTKVEEGEVRENIYAISPTKLEILPDLVKKALKLGYDGVYIDGIEALVIENGFKSVAKFLLHIKDIVLAENKFIILTLDPRALKEEEIKIIEKEFKKLELSLEHHHHHH	not soluble
HMARSLYPLGVSRSLPPYRRTFNHQTFIFVKSILRLGVSMEEEEFDIREALANGEHLEKILIMAKYDESVLKKLIELLDDDLWTVVKNAISIIMVIAKTREDLYEPMLKKLFSLLKKSEAIPLTQEIAKAFGQMAKEKPELVKSMIPVLFANYRIGDEKTKINVSYALEEIAKANPMLMASIVRDFMSMLSSKNREDKLTALNFIEAMGENSFKYVNPFLPRIINLLHDGDEIVRASAVEALVHLATLNDKLRKVVIKRLEELNDTSSLVNKTVKEGISRLLLLEGHSSS	soluble
MACQTGIRANAALRNALNLGKQAKLRLIKIVVNNEEMTPNYEFAGTANWRDDWRACLPDCVDAYEPCFILFRLNTITEWVLITFVDDRAPVREKMLLAATCATFKSEFGQCYIEHEKHVTDLKDLTLNAFEAWLKAKTELGPMSEVERELHNAQQERAAIAHAGPQHMKGVAFPVDRNAEEALRQLASQKLSFVQLSVDTLNEAIKLEGTLESLEPSQLASKVPRDKPRYTFYNFDHTWEGVPQQCTLFIYSLPSSGSSIKERMLYSSCKGPFLSAAQNQYGVVITNKMEVDARDDLSEKALLEVIHPLPVEAPKQFSRPAPPRAGPRRITKV	not soluble
MTKLPQTQGVLNFIQKYLYNSTNYNFEDGSTQAINVPYPDSGVYENYILHYPDATSTELLDINIDQLYSEVMVLTDPKIERAYEYILEERDPGTSSTNILVTVGVE	not soluble
MAHPLDLNQLAQHIKQWGQSLGFQQVGICDTDLTAEEPRLQAWLDKQYHGEMAWMARHGMLRARPHELLPGTLRVISVRMNYLPAKAAFASTLNNPELGYVSRYALGRDYHKLLRQRLKKLGDQIQHYCLEQNNLDRHDLELHDLEQHDSERQGQPEQHTASEINFRPFVDSAPIMERSLAAKAGIGWVGKHSLILNRDAGSWFFLGELLIDLPLPVDKPQEEQCGRCVACMTTCPTGAIVAPYTVDARRCISYLTIELEGAIPEEFRPLMGNRIYGCDDCQLICPWNRFSQLTDEDDFSPRAVLHTPQLLDLFAWNEEKFLRVTEGSAIRRIGHLRWLRNISVALGNAPYLDSIVLALETRRGLHPMLDEHIEWAISQQLARRATQAVEVQLPQKKRLIRAIEKGLPRDA	not soluble
MGHHHHHHSHLPAIRTLQSLAFHPNVTFIIGENGTGKSTLLEGIAIALGFNAEGGTKNFRFSTNDSHSSLHEYLRISKSFNTPSDGFFLRAESFYNVASYIDEIDADLEARGNPVIDSYGGISLHEQSHGESFFSLFMNRFSGQGLYILDEPEAALSPMRQLSMLIRMHELAEQGSQFVIATHSPILMAYPESTIYSLTQEG	not soluble
HLEDVKFMIVGLPDVGLVGAITGMHLIRSKDMSYTVGIDHYGALPPVVIMNRGRVLHPIRIYRSGDVAALITDVPILPAAIPSFSAAVVEYSRRRGIEYIISATGVGNPKRLEQEKPSLYWLASDKKASLLASSLRMASEPEQGIIVGPYAIILKEAMKKHVHNLVLLADSFIDIPDPEAAAVIVEGINSITGLNVSVDELIKQAEEIKLRMRDLMKETKAVMARMGKEMEYRAPILYT	not soluble
RVESLMTHRSDIIALDLDDPVDENLKKMIASGRSNFPVYERDLDDVIGIVSVKDVLAKLVESGKVDIRASVTKPLFAPEAITILKLLESFKETGMHIALITDEYGSVQGIITLHDILEAIVGDVRSLGEPEEEQI	not soluble
MGSDKIHHHHHHMQSLHGNCLIAYARHKYILTMVNGEYRYFNGGDLVFADASQIRVDKCVENFVFVSRDTLSLFLPMLKEEALNLHAHKKVSSLLVHHCSRDIPVFQEVAQLSQNKNLRYAEMLRKRALIFALLSVFLEDEHFIPLLLNVLQPNMRTRVCTVINNNIAHEWTLARIASELLMSPSLLKKKLREEETSYSQLLTECRMQRALQLIVIHGFSIKRVAVSCGYHSVSYFIYVFRNYYGMTPTEYQERSAQRLSNRDSAASIVAQGNFYGTDRSAEGIRL	not soluble
MAHHHHHHMGTLEAQTQGPGSMLNKVMLIGYLGDDPESKTMTSGAEVVNFRMATFESYMNKNTHQKVEKTEWHSVVVFNPHFAKIALQYLHKGSKVYIEGKLQTRKWQDKNGHDRYTTEIVLPQYKGELHLLDAKKEQSASSSSVTSQSYAIASGADDYGISAHDSMPF	soluble
MGSDKIHHHHHHMVVIISAHNIATLEYQPMPKISDSGEPVEGVQAVALTLKILEALANARSTVGVTELSKQIGAGKARVYRHLQTLVTLGYALKDEESERYSTGPQLLRLSHTLSYRLDVVEAARLPARKLSDATGLTAVVARVEGDAIVVVHAEYSRADTMRSPRIGTTMQFHYTALGKIALAFGPAELRSRVLNEPLEQLTAYTITDRRDLMKKLEKIQELGWASSANEGMVGFNALAAPITDAHERLVGMICVVGSIKQLPATPPQNYLDALLSTADDISAYFGHVSRMPS	not soluble
MSHLALKDLFSGFFVIDDEEEVEVPDKQQQVNEAPAKEQSQQTTKQNAIKSVPQKSASRYTTTSEERNNRMSNYSKNNSRNVVTMNNATPNNASQESSKMCLFEPRVFSDTQDIADELKNRRATLVNLQRIDKVSAKRIIDFLSGTVYAIGGDIQRVGTDIFLCTPDNVEVAGSITDHIENMEHSFDLEHHHHHH	not soluble
MGSDKIHHHHHHVTRVAVVGDSLSAYAVAAVLTKLGYNCDLLCYPTKSNFYGPSLVLNDVSETLLSELFPDVNLGVDSQRLTHRWVCWGTQPVQIEQPALAIRSNSLLELLRNSKVMQHTRMIDASQLTAQQISQKYAWTVYTKHKQRGMPTLGEPCLQNAARSLLPRSRSVPQGSGTPTAGVAIALSESSQSLIGGQRVIVTAEVQDTPKSAYTCYMESLAEGWLFYAPVNGSGAMVQACLPITPANPRRALLECLYKSTTISTFVNDLQKVNCFFSAPYLEWPLCGLGWLMVGEPAIKIDPVSGEGTPFALRSAILAGAVIDAILSDRIPDISALNHYQTRLTHSFISHLRGCIQFYREVFSTNLAWQAEINQMIDIAETLSTQLEQQAVNVLNYRLIDFELHIG	not soluble
MSLERKRVLVKFSGEALAGENGFGIENSILKFIASEIKELIKNQIEVGIVIGGGNIIRGVSAAKGGLIKRTSGDHMGMLATVINAIAIQEALESSGLEVRVQSAIQMEAFCETYIMRRAQRHLEKGRVVVFAAGTGNPYFTTDTTAILRAVEIDADMVIKATKVNGVYDKDPKQFDDAVFLNTLSYDEAMQDNIKVMDDTAIALAKDNKLPIVVCNMFEEGNLLKIIQGDTSLCSTVKNNEGHHHHHH	soluble
